Experimental data published in paper PMC6277001 (Molecular cancer research : MCR, 2018).

Target: T1, GST-β-catenin^4A (UniProt P35222 1-781, S33A | S37A | T41A | S45A)
T1 sequence: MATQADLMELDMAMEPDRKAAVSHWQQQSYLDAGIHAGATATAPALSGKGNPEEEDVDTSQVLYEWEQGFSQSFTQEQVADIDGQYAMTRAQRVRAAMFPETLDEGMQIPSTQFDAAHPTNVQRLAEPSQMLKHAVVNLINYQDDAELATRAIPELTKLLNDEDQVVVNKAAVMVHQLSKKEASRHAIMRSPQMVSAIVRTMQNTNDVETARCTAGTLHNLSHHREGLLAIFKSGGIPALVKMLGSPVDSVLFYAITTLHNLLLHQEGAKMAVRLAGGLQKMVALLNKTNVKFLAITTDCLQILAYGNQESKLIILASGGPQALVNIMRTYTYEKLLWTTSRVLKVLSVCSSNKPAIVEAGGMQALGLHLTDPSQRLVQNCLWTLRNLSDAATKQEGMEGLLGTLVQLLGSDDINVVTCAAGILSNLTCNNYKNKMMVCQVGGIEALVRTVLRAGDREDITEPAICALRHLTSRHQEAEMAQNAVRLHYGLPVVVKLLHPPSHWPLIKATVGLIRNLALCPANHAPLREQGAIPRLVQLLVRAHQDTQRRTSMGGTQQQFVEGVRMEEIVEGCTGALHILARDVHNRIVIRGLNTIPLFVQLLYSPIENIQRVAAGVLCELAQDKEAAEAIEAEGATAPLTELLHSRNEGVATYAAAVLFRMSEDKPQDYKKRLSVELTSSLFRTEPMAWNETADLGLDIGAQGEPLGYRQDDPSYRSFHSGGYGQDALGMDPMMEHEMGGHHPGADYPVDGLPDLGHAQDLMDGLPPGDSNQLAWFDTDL
Assay: pull-down

B1: 6xHis-FLYWCH1 (natural protein)
chain: MPLPEPSEQEGESVKAGQEPSPKPGTDVIPAAPRKPREFSKLVLLTASDQDEDGVGSKPQEVHCVLSLEMAGPATLASTLQILPVEEQGGVVQPALEMPEQKCSKLDAAAPQSLEFLRTPFGGRLLVLESFLYKQEKAVGDKVYWKCRQHAELGCRGRAITRGLRATVMRGHCHAPDEQGLEARRQREKLPSLALPEGLGEPQGPEGPGGRVEEPLEGVGPWQCPEEPEPTPGLVLSKPALEEEEAPRALSLLSLPPKKRSILGLGQARPLEFLRTCYGGSFLVHESFLYKREKAVGDKVYWTCRDHALHGCRSRAITQGQRVTVMRGHCHQPDMEGLEARRQQEKAVETLQAGQDGPGSQVDTLLRGVDSLLYRRGPGPLTLTRPRPRKRAKVEDQELPTQPEAPDEHQDMDADPGGPEFLKTPLGGSFLVYESFLYRREKAAGEKVYWTCRDQARMGCRSRAITQGRRVTVMRGHCHPPDLGGLEALRQREKRPNTAQRGSPGGPEFLKTPLGGSFLVYESFLYRREKAAGEKVYWTCRDQARMGCRSRAITQGRRVMVMRRHCHPPDLGGLEALRQREHFPNLAQWDSPDPLRPLEFLRTSLGGRFLVHESFLYRKEKAAGEKVYWMCRDQARLGCRSRAITQGHRIMVMRSHCHQPDLAGLEALRQRERLPTTAQQEDPEKIQVQLCFKTCSPESQQIYGDIKDVRLDGESQ
binding result: binds
